Reference: patent US20120264815

Target: von Willebrand factor (VWF) (Homo sapiens) (UniProt P04275)
Assay: filter
Conditions: 2'-F pyrimidines; pool after 4 rounds convergent SELEX

Sequence “GGGAGGACGAUGCGGNNNNNNNNNNNNNNNNNNNNNNNNNNNNNNNNNNNNNNNNCAGACGACUCGCUGAGGAUCC [VWF convergent SELEX round 4 pool (R9)]” has a Kd of 4.5 nM.
